Laboratory results as given in patent US9388406B2, “System useful for reporting protein-protein interactions in the bacterial periplasm” (Cornell University, priority 2008, dated 2016).

B1: GCN4-PP: double proline mutant of the GCN4 leucine zipper with reduced homodimerization, antigen of scFv-GCN4 (protein)
chain: HPETLVKVKDAEDQLGARVGYIELDLNSGKILESFRPEERFPMMSTFKVLLCGAVLSRVDAGQEQLGRRIHYSQNDLVEYSPVTEKHLTDGMTVRELCSAAITMSDNTAANLLLTTIGGPKELTAFLHNMGDHVTRLDRWEPELNEAIPNDERDTTMPAAMATTLRKLLTGELLEPKVEELLPKNYHLENEVARL
modifications: left off: small tags and cut ends
B2: Fos: Fos leucine zipper, fused to the ω fragment of β-lactamase; interacts with Jun (protein)
chain: LQAETDQLEDEKSALQTEIANLLKEKEKLGGGGSGGGGSGGGGSNGRTLASRQQLIDWMEADKVAGPLLRSALPAGWFIADKSGAGERGSRGIIAALGPDGKPSRIVVIYTTGSQATMDERNRQIAEIGASLIKHW

Legend:
scFv-GCN4 = test: split β-lactamase protein complementation assay in the periplasm, MBC on ampicillin, scFv-GCN4 with antigen; assay type: cell-based; details: E. coli MC4100; antigen on α Bla fragment paired with scFv-GCN4; versus α-Jun negative control
Method: (§1) E. coli MC4100 cells were co-transformed with plasmids pDMB-P1-ωBLA (CmR) and aGS-P2 (KanR), where P1 and P2 represent proteins of interest. Cells were grown overnight at 37° C. in LB medium containing 20 μg/mL chloramphenicol (Cm) and 50 μg/mL kanamycin (Kan). Screening of cells on LB agar was performed by first normalizing overnight cultures by OD600 and then spotting 5 μL, of serially diluted (10-10^6-fold) cells on LB agar plates with […] of ampicillin (Amp). In all cases, the plates were incubated 16 h at 37° C. and then imaged using a ChemiDoc System (BioRad). […] The minimum bacteriocidal concentration was determined as the minimum Amp concentration at which no colonies appeared on the plates.
(§2) It was hypothesized that detecting protein interactions in the periplasm can be used to engineer antibody fragments with in vivo activity in the periplasm. […] The approach used in the present invention was to fuse known interacting protein domains to genes encoding two split β-lactamase fragments using a two-plasmid system (Wehrman, T., et al., “Protein-protein Interactions Monitored in Mammalian Cells Via Complementation of Beta-lactamase Enzyme Fragments,” Proc Natl Acad Sci USA 99:3469-3474 (2002), which is hereby incorporated by reference in its entirety)(see FIG. 2A). […]

Jun [1] = target: T1, Jun (Homo sapiens, UniProt P05412); test: split β-lactamase protein complementation assay in the periplasm, spot plating on ampicillin, Fos/Jun leucine zippers; assay type: cell-based; details: Fos on ω fragment, Jun on α fragment of Bla; negative control GCN4
Method: as §1, §2

Jun [2] = target: T1, Jun; details: Fos/Jun leucine zippers; Pernelle et al. 1993; cited from earlier work

T1 sequence (P05412 280-308 limits assumed, species assumed): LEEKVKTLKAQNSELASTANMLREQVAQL

Molecule	higher MBC (minimum bacteriocidal concentration) on ampicillin (scFv-GCN4) [fold]	ampicillin activity in the PCA (Jun [1])	KD of their interaction (Jun [2])
B1	16	–	–
B2	–	well above that of the negative control	nanomolar range
